The record followed here is article PMC3836487.

Bounds are passed on as bounds.

The target in the assay is CFP. Kind of assay: FRET or BRET; acceptor photobleaching FRET in live C. crescentus cells on 1 % agarose pads; YFP (acceptor) bleached for 20 s at 532 nm, increase of CFP (donor) emission recorded; cells grown in M2G, 0.3 % xylose for 1 h; apparent FRET efficiency, above 0.5 % taken as an interaction, above 1 % as a strong one.

Regarding YFP, the apparent FRET efficiency was less than 0.5%.
